Changes are numbered by the printed parent chain. In names and notes the source's numbering stands.
T1: thermostable variant of Streptomyces mobaraensis transglutaminase (Streptomyces mobaraensis, UniProt P81453 79-407)
T1 sequence: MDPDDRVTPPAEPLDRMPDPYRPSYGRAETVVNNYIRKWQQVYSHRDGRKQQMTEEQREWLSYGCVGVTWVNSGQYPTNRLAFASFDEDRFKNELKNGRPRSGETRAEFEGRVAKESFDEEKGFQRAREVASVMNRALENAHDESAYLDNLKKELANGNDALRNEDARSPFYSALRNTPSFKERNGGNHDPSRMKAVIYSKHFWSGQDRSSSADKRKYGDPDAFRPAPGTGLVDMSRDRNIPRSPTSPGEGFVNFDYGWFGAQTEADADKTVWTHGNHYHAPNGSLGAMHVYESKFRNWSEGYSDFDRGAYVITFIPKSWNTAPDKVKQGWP

B1: pro-peptide truncation variant ΔD22-P46 (peptide)
peptide: MDNGAGEETKSYAETYRLTAD
B2: pro-peptide truncation variant ΔL18-P46 (peptide)
peptide: MDNGAGEETKSYAETYR
B3: pro-peptide truncation variant ΔI26-P46 (peptide)
peptide: MDNGAGEETKSYAETYRLTADDVAN
B4: pro-peptide variant E8G (peptide)
peptide: MDNGAGEGTKSYAETYRLTADDVANINALNESAPAASSAGPSFRAP
B5: pro-peptide variant T9Q (peptide)
peptide: B4 peptide with G8E, T9Q
B6: pro-peptide variant A24E (peptide)
peptide: B4 peptide with G8E, A24E
B7: pro-peptide variant K10R (peptide)
peptide: B4 peptide with G8E, K10R
B8: pro-peptide variant D22R (peptide)
peptide: B4 peptide with G8E, D22R
B9: pro-peptide variant A24P (peptide)
peptide: B4 peptide with G8E, A24P
B10: pro-peptide variant Y12P (peptide)
peptide: B4 peptide with G8E, Y12P
B11: pro-peptide variant Y12L (peptide)
peptide: B4 peptide with G8E, Y12L
B12: pro-peptide variant E14N (peptide)
peptide: B4 peptide with G8E, E14N
B13: pro-peptide variant E14C (peptide)
peptide: B4 peptide with G8E, E14C
B14: pro-peptide variant Y12T (peptide)
peptide: B4 peptide with G8E, Y12T
B15: pro-peptide variant E7G (peptide)
peptide: B4 peptide with E7G, G8E
B16: pro-peptide variant E8Y (peptide)
peptide: B4 peptide with G8Y
B17: pro-peptide variant E14R (peptide)
peptide: B4 peptide with G8E, E14R
B18: pro-peptide variant Y12N (peptide)
peptide: B4 peptide with G8E, Y12N
B19: pro-peptide variant S11K (peptide)
peptide: B4 peptide with G8E, S11K
B20: pro-peptide variant D22Q (peptide)
peptide: B4 peptide with G8E, D22Q
B21: pro-peptide variant Y12V (peptide)
peptide: B4 peptide with G8E, Y12V
B22: pro-peptide variant E14D (peptide)
peptide: B4 peptide with G8E, E14D
B23: pro-peptide variant E14A (peptide)
peptide: B4 peptide with G8E, E14A
B24: pro-peptide variant E14T (peptide)
peptide: B4 peptide with G8E, E14T
B25: pro-peptide variant E14H (peptide)
peptide: B4 peptide with G8E, E14H
B26: pro-peptide variant L18S (peptide)
peptide: B4 peptide with G8E, L18S
B27: pro-peptide variant S38P (peptide)
peptide: B4 peptide with G8E, S38P
B28: pro-peptide variant L18W (peptide)
peptide: B4 peptide with G8E, L18W
B29: pro-peptide variant Y12G (peptide)
peptide: B4 peptide with G8E, Y12G
B30: pro-peptide variant S38D (peptide)
peptide: B4 peptide with G8E, S38D
B31: pro-peptide variant D22Y (peptide)
peptide: B4 peptide with G8E, D22Y
B32: pro-peptide variant L18E (peptide)
peptide: B4 peptide with G8E, L18E
B33: pro-peptide variant I26A (peptide)
peptide: B4 peptide with G8E, I26A
B34: pro-peptide variant K10G (peptide)
peptide: B4 peptide with G8E, K10G
B35: pro-peptide variant S38Y (peptide)
peptide: B4 peptide with G8E, S38Y
B36: pro-peptide variant I26E (peptide)
peptide: B4 peptide with G8E, I26E
B37: pro-peptide variant Y12S (peptide)
peptide: B4 peptide with G8E, Y12S
B38: pro-peptide variant E14V (peptide)
peptide: B4 peptide with G8E, E14V
B39: pro-peptide variant E14G (peptide)
peptide: B4 peptide with G8E, E14G
B40: pro-peptide variant D22P (peptide)
peptide: B4 peptide with G8E, D22P
B41: pro-peptide variant L18K (peptide)
peptide: B4 peptide with G8E, L18K
B42: pro-peptide variant S11D (peptide)
peptide: B4 peptide with G8E, S11D
B43: pro-peptide variant S11L (peptide)
peptide: B4 peptide with G8E, S11L
B44: pro-peptide variant K10D (peptide)
peptide: B4 peptide with G8E, K10D
B45: pro-peptide truncation variant ΔY12-P46 (peptide)
peptide: MDNGAGEETKS

Assays:
[1] = target: T1, thermostable variant of Streptomyces …; assay: cell-based or functional assay
[2] = target: T1, thermostable variant of Streptomyces …; assay: cell-based or functional assay; remark: listed apart in the source

| Binder | Reduction in binding affinity of inhibitory peptide relative to WT [1] [fold] | Improvement in pH responsiveness of inhibitory peptide relative to WT [2] [fold] |
| --- | --- | --- |
| B1 | > 1.2 | – |
| B2 | > 1.2 | > 5 |
| B3 | > 1.2 | > 1.2 |
| B4 | > 1.2 | > 1.2 |
| B5 | > 1.2 | > 1.2 |
| B6 | > 1.2 | – |
| B7 | > 1.2 | > 1.2 |
| B8 | > 1.2 | – |
| B9 | > 5 | – |
| B10 | > 1.2 | – |
| B11 | > 1.2 | > 1.2 |
| B12 | > 1.2 | > 5 |
| B13 | > 1.2 | – |
| B14 | > 1.2 | > 1.2 |
| B15 | > 1.2 | > 5 |
| B16 | > 1.2 | > 1.2 |
| B17 | > 1.2 | > 1.2 |
| B18 | > 1.2 | > 1.2 |
| B19 | > 1.2 | > 1.2 |
| B20 | > 1.2 | – |
| B21 | > 1.2 | > 1.2 |
| B22 | > 1.2 | – |
| B23 | > 1.2 | – |

| Binder | Reduction in binding affinity of inhibitory peptide relative to WT [1] [fold] | Improvement in pH responsiveness of inhibitory peptide relative to WT [2] [fold] |
| --- | --- | --- |
| B24 | > 1.2 | > 1.2 |
| B25 | > 1.2 | – |
| B26 | > 1.2 | – |
| B27 | > 1.2 | – |
| B28 | > 1.2 | > 1.2 |
| B29 | > 1.2 | > 1.2 |
| B30 | > 1.2 | – |
| B31 | > 1.2 | – |
| B32 | > 1.2 | – |
| B33 | > 1.2 | – |
| B34 | > 1.2 | > 5 |
| B35 | > 1.2 | – |
| B36 | > 1.2 | – |
| B37 | > 5 | – |
| B38 | > 1.2 | > 1.2 |
| B39 | > 1.2 | > 5 |
| B40 | > 1.2 | – |
| B41 | > 1.2 | > 1.2 |
| B42 | > 1.2 | > 1.2 |
| B43 | > 1.2 | > 1.2 |
| B44 | > 1.2 | > 1.2 |
| B45 | > 1.2 | > 1.2 |

Reference: patent publication US20250304927A1, “PRO-PEPTIDE VARIANTS FOR MODULATING ACTIVITY OF TRANSGLUTAMINASES” (CURIE CO. INC., priority 2022, published 2025)
